One molecule from patent publication US20210025886A1 (Alexion, published 2021) can be followed below.

This test has as its target T1, complement fragment C3a (Complement Technologies cat # A118) (human, UniProt P01024 672-748).
T1 construct: domain: C3a; also called purified C3a
The test can be described thus: TR-FRET sandwich, purified C3a titrated from 66.6 nM, antibodies 50 nM each. The procedure: Labeled antibodies were then used to detect C3a in a sample that also contained intact C3 and C3b fragments. […] For the detection assay, complement C3 and fragments C3a and C3b were purchased from Complement Technologies (cat # A113c, A118, and A114, respectively). They were aliquoted and stored at −80° C. Each complement protein was titrated individually or as a mixture in assay buffer (10 mM HEPES pH 7.4, 0.1% BSA) at final concentrations of 66.6 nM serially diluted. Detection antibodies were combined in assay buffer to make a C3a detection mixture at final concentrations of 50 nM each in assay. Then, 15 μl of the appropriate C3 reagent was added to the appropriate wells of a white 384 well Optiplate (Perkin Elmer Cat. #600-7290). To each well, 15 μl antibody detection mix was then added. The plate was spun at 4000 RPM for 20 seconds and read on a Paradigm Spectramax instrument using the Cisbio htrf cartridge (excite at 340 nm and emit at 615 nm and 665 nm). The plate was read periodically and the signal calculated by dividing the 665 signal by the 615 signal and multiplying by 10000.

T1 sequence (P01024 672-748 limits assumed): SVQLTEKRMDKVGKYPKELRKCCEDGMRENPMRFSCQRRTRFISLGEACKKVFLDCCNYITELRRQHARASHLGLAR

B1: C3a antibody YHP133 (antibody, human IgG1, kappa, V domains shown)
VH: EVQLQQSGAELVRPGASVKLSCTASGFNIKDSLIHWVKQRPEQGLEWIGWIDPDDGETKYAPKFQDKATITADTSSNTAYLQFSSLTSEDTAIYYCAGRSGEGYFDYWGQGTTVTVSS
VL: DIVMTQSPATLSVTPGDRVSLSCRASQSISDYLHWYQQKSHESPRLLIKYASQSISGIPSRFSGSGSGSDFTLSINSVEPEDVGVYYCQNGHSFPLTFGAGTKVEIKR
modifications: labeled with d2 dye (Cisbio d2 labeling kit); site not stated
notes: Synthesized and purified according to standard procedures; used d2-labeled in the FRET assays; also called the other C3a antibody; acceptor antibody
Take B1: the binding result is reported as “binds”.
